Source: patent US9393284B2, “Visfatin therapeutic agents for the treatment of acne and other conditions” (ARAVA BIO-TECH LTD., priority 2009, dated 2016)

Legend:
sebaceous glands [1] = assay: Number of sebocytes in sebaceous glands of adult BalbC mice after topical or intradermal visfatin (H&E staining); format: in vivo, Mus musculus; conditions: 0.01 μg/ml, 200 μL once daily for 4 days
Protocol: Preparation of Paraffin Embedded Skin Sections: Skin biopsies were performed on study mice. Skin biopsy samples were fixed in 4% paraformaldehyde then dehydrated with increasing concentrations of ethanol (50-100%). Dehydrated biopsy samples were immersed twice in xylene, then once in a 1:1 solution of paraffin and xylene and finally three times in pure melted paraffin at a temperature of 60° C. Paraffin blocks were then sectioned with a microtome and the resulting sections were mounted on slides.
Hematoxylin & Eosin Staining: Paraffin embedded skin biopsy section slides were incubated at 60° C. for 60 minutes and deparaffinized by washing the slides twice with toluene (100%) for 10 minutes and rehydrating the skin biopsy section slides in decreasing concentration of ethanol (100-50%) for 5 minutes each. The slides then were stained with a ready to use solution of hematoxylin for 5 minutes, rinsed with water, stained with eosin (0.5% in double distilled water) for 1.5 minutes and washed twice by rapid immersion in 70% ethanol. […]
Skin samples were fixed in 4% paraformaldehyde and paraffin embedded. The number of cells with the bubbled shaped morphology characteristic of sebocytes were then counted and calculated as a percentage of the number of total cells in each sebaceous gland by microscopic examination at a magnification of 40× using a Nikon Eclipse 50i microscope. […]

sebaceous glands [2] = assay: Maturation and sebum accumulation of sebaceous glands in newborn BalbC mice treated with visfatin (Oil Red O, H&E); format: in vivo, Mus musculus
Protocol: Preparation of Frozen Skin Sections: Skin biopsies were embedded in optimum cutting temperature compound (OCT) and immediately sectioned by cryostat-microtome and mounted on slides.
Hematoxylin & Eosin Staining: Paraffin embedded skin biopsy section slides were incubated at 60° C. for 60 minutes and deparaffinized by washing the slides twice with toluene (100%) for 10 minutes and rehydrating the skin biopsy section slides in decreasing concentration of ethanol (100-50%) for 5 minutes each. The slides then were stained with a ready to use solution of hematoxylin for 5 minutes, rinsed with water, stained with eosin (0.5% in double distilled water) for 1.5 minutes and washed twice by rapid immersion in 70% ethanol. Thereafter, the slides were dehydrated by washing once with 95% ethanol for 5 minutes, twice with 100% ethanol for 5 minutes and twice with xylene (100%) for 10 minutes. This was followed by the application of ENTELLAN™ (Merck KGaA, Darmstadt, Germany) and the mounting of coverslips.
Oil Red O Staining: Frozen skin biopsy section slides were fixed in 1% neutral-buffered formalin for 5 minutes, washed in deionized water, and incubated in 60% isopropanol for 5 minutes. […]

B1: visfatin: recombinant Mus musculus visfatin (Enzo Life Sciences), in PBS, topical or intradermal solution (protein, UniProt Q99KQ4 1-491, looked up)
Nicotinamide …: MNAAAEAEFNILLATDSYKVTHYKQYPPNTSKVYSYFECREKKTENSKVRKVKYEETVFYGLQYILNKYLKGKVVTKEKIQEAKEVYREHFQDDVFNERGWNYILEKYDGHLPIEVKAVPEGSVIPRGNVLFTVENTDPECYWLTNWIETILVQSWYPITVATNSREQKKILAKYLLETSGNLDGLEYKLHDFGYRGVSSQETAGIGASAHLVNFKGTDTVAGIALIKKYYGTKDPVPGYSVPAAEHSTITAWGKDHEKDAFEHIVTQFSSVPVSVVSDSYDIYNACEKIWGEDLRHLIVSRSTEAPLIIRPDSGNPLDTVLKVLDILGKKFPVTENSKGYKLLPPYLRVIQGDGVDINTLQEIVEGMKQKKWSIENVSFGSGGALLQKLTRDLLNCSFKCSYVVTNGLGVNVFKDPVADPNKRSKKGRLSLHRTPAGNFVTLEEGKGDLEEYGHDLLHTVFKNGKVTKSYSFDEVRKNAQLNIEQDVAPH
number of sebocytes present inside the sebaceous glands relative to control mice (sebaceous glands [1]; intradermal): increased
number of sebocytes present inside the sebaceous glands relative to control mice (sebaceous glands [1]; topical): increased
sebum in sebaceous glands based on Oil Red O staining (sebaceous glands [2]; topical visfatin 0.01 μg/ml 100 μL once daily, day 3 after birth): do contain sebum
maturation of sebaceous glands (H&E staining) (sebaceous glands [2]; topical visfatin, day 4 after birth): induces the maturation of sebaceous glands
